Where a chain is given by its changes, count along the chain named. Blank lines part the entries; values can stand above or below the binder they belong to.
Columns and labels:
[1] = biological target: T1, human Dll1 (human, UniProt O00548 18-723); experiment: FACS, 15 µg/ml, 293T cells with human Dll1
T1 construct: whole, on cells
T1 sequence (looked up): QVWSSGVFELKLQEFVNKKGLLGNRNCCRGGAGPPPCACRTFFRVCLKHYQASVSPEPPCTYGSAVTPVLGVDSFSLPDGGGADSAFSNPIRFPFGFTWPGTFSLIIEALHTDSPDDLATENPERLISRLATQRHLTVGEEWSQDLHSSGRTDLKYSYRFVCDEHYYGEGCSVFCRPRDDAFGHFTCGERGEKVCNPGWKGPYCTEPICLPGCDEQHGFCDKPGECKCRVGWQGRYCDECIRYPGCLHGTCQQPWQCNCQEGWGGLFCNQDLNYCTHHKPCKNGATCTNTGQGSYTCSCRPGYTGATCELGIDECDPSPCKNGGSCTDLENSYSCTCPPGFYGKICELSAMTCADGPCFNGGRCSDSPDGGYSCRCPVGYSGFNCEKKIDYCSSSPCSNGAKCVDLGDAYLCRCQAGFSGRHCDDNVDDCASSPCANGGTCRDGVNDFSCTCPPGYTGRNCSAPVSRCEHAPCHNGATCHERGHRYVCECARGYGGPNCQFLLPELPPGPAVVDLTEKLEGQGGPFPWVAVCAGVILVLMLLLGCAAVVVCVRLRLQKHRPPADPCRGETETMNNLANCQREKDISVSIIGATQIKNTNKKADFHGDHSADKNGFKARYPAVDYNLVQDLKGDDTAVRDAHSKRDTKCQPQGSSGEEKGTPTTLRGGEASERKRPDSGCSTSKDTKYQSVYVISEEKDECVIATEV
Protocol: (§1) The ability of the purified antibodies to bind to human Jagged1 and Dll1 was determined by FACS analysis. […] Cells were resuspended in PBS containing 2% FCS and seeded at 50000 cells/well into V-bottomed plates. Anti-DLL4 antibodies diluted in PBS containing 2% FCS were added at a final concentration of 5 or 15 μg/ml and plates were incubated for 1 h at 4° C. […] Data was analyzed by comparing the shift in geometric mean fluorescence in the mock-transfected cells to that observed in the Jagged1- or Dll1-transfected cells and is shown in Tables 16 and 17.

[2] = biological target: T2, human Jagged1 (human, UniProt P78504 34-1218); experiment: FACS, 5 µg/ml, 293T cells with human Jagged1
T2 construct: whole, on cells
Protocol: as §1

[3] = biological target: T1, human Dll1; experiment: FACS, 15 µg/ml, 293T cells with human Dll1 vs mock
Protocol: as §1

[4] = biological target: T2, human Jagged1; experiment: FACS, 5 µg/ml, 293T cells with human Jagged1 vs mock
Protocol: as §1

[5] = biological target: T2, human Jagged1; experiment: FMAT, hybridoma supernatant, 293T cells with human Jagged1
Protocol: (§2) Cells diluted in PBS containing 2% FBS were seeded at a density of 3000 expressing and 15000 mock transfected cells per well in 384 well plates (Corning Costar, catalog #3712). Immediately after plating, 15 or 20 μl/well of hybridoma supernatants and 10 μl/well of secondary antibody (Goat anti-human IgG Fc Cy5, final concentration 750 ng/ml) were added and plates incubated for 3 h at room temperature prior to reading the fluorescence on the FMAT 8200 instrument (Applied Biosystems). The binding of human Notch1/Fc chimera (R&D systems, catalog #3647-TK), diluted 1:2 from 2.86 μg/ml was used as a positive control for DLL4 and human Notch3/Fc chimera diluted from 10 μg/ml was used a positive control for binding to Jagged1. Results for 12 hybridoma supernatants showing binding of hybridoma supernatants to human/cynomolgus monkey DLL4 and human Jagged are shown in Table 3.

[6] = biological target: T3, full length human DLL4 (human, UniProt Q9NR61 27-685); experiment: FMAT competition, purified antibody vs Alexa-647 human Notch1/Fc, 293T cells with human DLL4
T3 construct: whole, on cells; also called native DLL4 expressed in HEK293 cells
Protocol: To discriminate between the purified antibodies based upon their ability to prevent the interaction between full-length recombinant DLL4 and soluble Notch1/Fc, the following assays were performed. Transfected and untransfected 239T cells were reconstituted in PBS containing 2% FCS and 5000 transfected and 17500 non-transfected cells were plated in 30 μl into wells of a 384-well tissue culture plate (Corning Costar, catalog #3712). Subsequently, 30 μl of purified antibodies, serial diluted from 5 μg/ml hybridoma supernatant was added and plates were incubated at 4° C. for 1 h, at which time 20 μl of 100 ng/ml Alexa-647 labeled human Notch1/Fc was added. After a further 3 h incubation at 4° C., the amount of bound Notch1/Fc was determined by reading the fluorescence in each well using an FMAT 8200 instrument (Applied Biosystems).

[7] = biological target: T3, full length human DLL4; experiment: FMAT, hybridoma supernatant, 293T cells with human DLL4; FMAT, hybridoma supernatant, native full length human DLL4 on live 293T cells, room temperature
Protocol: as §2

[8] = biological target: T3, full length human DLL4; experiment: FMAT competition, supernatant vs Alexa-647 human Notch1/Fc, 293T cells with human DLL4; FMAT competition with Alexa-647 human Notch1/Fc, native human DLL4 on 293T cells, 4 C, n = 2
Protocol: (§3) Transfected and untransfected 239T cells were reconstituted in PBS containing 2% FCS and 5000 transfected and 17500 non-transfected cells were plated in 20 μl into wells of a 384-well tissue culture plate (Corning Costar, catalog #3712). Subsequently, 20 μl of hybridoma supernatant was added and plates were incubated at 4° C. for 1 h, at which time 20 μl of Alexa-647 labeled human Notch1/Fc was added at a final concentration of 6.7 ng/ml. After a further 3 h incubation at 4° C., the amount of bound Notch1/Fc was determined by reading the fluorescence in each well using an FMAT 8200 instrument (Applied Biosystems). Results are expressed as % inhibitions with the minimum inhibition in the assay being determined by the effects of non-DLL4 binding supernatants prepared in a similar way as described in example 2, and the maximum inhibition being defined as the signal obtained in the presence of a saturating concentration of unlabeled Notch1/Fc. N.T.=not tested

[9] = biological target: T3, full length human DLL4; experiment: FMAT competition, supernatant vs Alexa-647 human Notch1/Fc, 293T cells with human DLL4; FMAT competition with Alexa-647 human Notch1/Fc, native human DLL4 on 293T cells, 4 C, n = 3
Protocol: as §3

[10] = biological target: T3, full length human DLL4; experiment: FACS titration, HEK293 cells with human DLL4
Protocol: The binding affinities of the purified antibodies for DLL4 was estimated using is both FACS and BIAcore techniques. […] The cells were then washed and incubated with goat anti-human IgG-Fc-Cy5+5 μg/mL 7-Amino-Actinomycin (7AAD) for 30 minutes at 4° C.
In this equation, F=mean fluorescence, LT=total molecular mAb concentration, P′=proportionality constant that relates arbitrary fluorescence units to bound mAb, M=cellular concentration in molarity, n=number of receptors per cell, B=background signal, and KD=equilibrium dissociation constant. For each mAb titration curve an estimate for KD is obtained as P′, n, B, and KD are allowed to float freely in the nonlinear analysis. Table 20 summarizes the affinity estimates for the anti-DLL4 antibodies for human and cynomolgus monkey DLL4 derived using the methodology described above

[11] = biological target: T4, full length mouse DLL4 (mouse, UniProt Q9JI71 27-686); experiment: FACS competition vs rat Notch1/Fc, HEK293 cells with mouse DLL4
T4 construct: whole, on cells
Protocol: (§4) Further experiments were performed on selected antibodies using HEK293 cells that were stably transfected with either human, mouse or cynomolgus monkey DLL4 using retroviral constructs. In these experiments, anti-DLL4 antibodies (final concentration: 10-0.01 μg/ml) diluted in PBS containing 2% FCS were added to DLL4-expressing HEK 293 cells (50000 cells/well diluted in PBS containing 2% FCS) and incubated for 1 h at 4° C. Subsequently, Alexa-647 labeled human, rat or APC labeled mouse Notch1/Fc (e.g. R&D Systems, catalog #3647-TK-050, 1057-TK-050, 5267-TK-050, respectively) was added at a final concentration of 0.01-0.5 μg/ml and plates were incubated for a further 2 h at 4° C. prior to washing and reading on a FACSCalibur instrument.

[12] = biological target: T3, full length human DLL4; experiment: FACS competition vs human Notch1/Fc, HEK293 cells with human DLL4
Protocol: as §4

[13] = biological target: T5, human soluble DLL4 (R&D systems catalog #1056-D4-050) (human, UniProt Q9NR61 27-524); experiment: Biacore T100, antibody immobilised, soluble human DLL4 as analyte
T5 construct: Catalog number as printed; perhaps the same product as #1506-D4; also called antigen DLL4
Protocol: For Biacore analysis, each purified anti-DLL4 antibody was immobilized on a CM5 sensor chip within a T100 using standard amine coupling. Immobilization levels were kept below 200 RU. The concentration of DLL4 was determined by UV-VIS spectroscopy using a molar absorptivity at 280 nm of 110, 440 M⁻¹cm⁻¹, which was calculated from the sequence of the protein using a method developed by Pace et al. (G. R. Grimsley and C. N. Pace (2003) in Current Protocols in Protein Science (John Wiley & Sons, Inc.), 3.1.1-3.1.9). The antigen DLL4 (R&D systems; human catalog #1056-D4-050 or mouse, catalog #1389-D4-050) was diluted to a starting concentration of 32-64 nM and tested in a 3-fold dilution series in triplicate. The running buffer contained HBS-P with 0.1 mg/ml BSA and binding responses were collected at 23° C. Bound complexes were regenerated with a 15 s pulse of 10 mM of sodium hydroxide. The response data were globally fitted with a simple 1:1 interaction model and Table 20 summarizes the kₐ, kd and KD estimates obtained for the anti-DLL4 antibodies when binding to human soluble DLL4 was assessed.

T5 sequence (Q9NR61 27-524 limits assumed): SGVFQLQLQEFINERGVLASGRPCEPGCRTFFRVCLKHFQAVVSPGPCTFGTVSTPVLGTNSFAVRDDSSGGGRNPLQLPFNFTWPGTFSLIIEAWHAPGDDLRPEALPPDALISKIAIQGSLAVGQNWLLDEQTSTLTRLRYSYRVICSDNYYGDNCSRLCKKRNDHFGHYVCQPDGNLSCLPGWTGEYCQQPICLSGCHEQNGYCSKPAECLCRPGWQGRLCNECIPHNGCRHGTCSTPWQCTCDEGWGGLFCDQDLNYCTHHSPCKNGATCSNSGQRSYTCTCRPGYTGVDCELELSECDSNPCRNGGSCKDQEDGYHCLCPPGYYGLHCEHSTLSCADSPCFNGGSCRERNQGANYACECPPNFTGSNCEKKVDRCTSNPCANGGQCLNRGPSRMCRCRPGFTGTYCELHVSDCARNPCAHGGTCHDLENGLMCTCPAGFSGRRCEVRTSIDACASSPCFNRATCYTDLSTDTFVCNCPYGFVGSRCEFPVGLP
T3 sequence (Q9NR61 27-685): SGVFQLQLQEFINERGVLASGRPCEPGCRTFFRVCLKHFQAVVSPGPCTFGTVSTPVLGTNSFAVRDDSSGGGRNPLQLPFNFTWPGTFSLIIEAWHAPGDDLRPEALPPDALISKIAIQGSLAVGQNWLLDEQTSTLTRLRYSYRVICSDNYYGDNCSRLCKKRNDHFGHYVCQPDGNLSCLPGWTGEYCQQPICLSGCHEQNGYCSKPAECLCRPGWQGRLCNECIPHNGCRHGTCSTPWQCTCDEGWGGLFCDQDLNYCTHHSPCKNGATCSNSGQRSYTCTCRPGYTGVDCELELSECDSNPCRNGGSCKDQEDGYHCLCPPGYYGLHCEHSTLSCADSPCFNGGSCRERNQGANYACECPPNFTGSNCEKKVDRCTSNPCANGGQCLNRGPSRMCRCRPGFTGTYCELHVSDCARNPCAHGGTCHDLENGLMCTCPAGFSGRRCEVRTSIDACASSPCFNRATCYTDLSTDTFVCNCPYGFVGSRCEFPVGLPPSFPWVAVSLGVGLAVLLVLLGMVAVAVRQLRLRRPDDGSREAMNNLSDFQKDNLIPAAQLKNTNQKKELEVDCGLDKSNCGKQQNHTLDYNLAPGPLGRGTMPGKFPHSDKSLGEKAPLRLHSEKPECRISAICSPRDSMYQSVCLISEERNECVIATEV
T2 sequence (P78504 34-1218): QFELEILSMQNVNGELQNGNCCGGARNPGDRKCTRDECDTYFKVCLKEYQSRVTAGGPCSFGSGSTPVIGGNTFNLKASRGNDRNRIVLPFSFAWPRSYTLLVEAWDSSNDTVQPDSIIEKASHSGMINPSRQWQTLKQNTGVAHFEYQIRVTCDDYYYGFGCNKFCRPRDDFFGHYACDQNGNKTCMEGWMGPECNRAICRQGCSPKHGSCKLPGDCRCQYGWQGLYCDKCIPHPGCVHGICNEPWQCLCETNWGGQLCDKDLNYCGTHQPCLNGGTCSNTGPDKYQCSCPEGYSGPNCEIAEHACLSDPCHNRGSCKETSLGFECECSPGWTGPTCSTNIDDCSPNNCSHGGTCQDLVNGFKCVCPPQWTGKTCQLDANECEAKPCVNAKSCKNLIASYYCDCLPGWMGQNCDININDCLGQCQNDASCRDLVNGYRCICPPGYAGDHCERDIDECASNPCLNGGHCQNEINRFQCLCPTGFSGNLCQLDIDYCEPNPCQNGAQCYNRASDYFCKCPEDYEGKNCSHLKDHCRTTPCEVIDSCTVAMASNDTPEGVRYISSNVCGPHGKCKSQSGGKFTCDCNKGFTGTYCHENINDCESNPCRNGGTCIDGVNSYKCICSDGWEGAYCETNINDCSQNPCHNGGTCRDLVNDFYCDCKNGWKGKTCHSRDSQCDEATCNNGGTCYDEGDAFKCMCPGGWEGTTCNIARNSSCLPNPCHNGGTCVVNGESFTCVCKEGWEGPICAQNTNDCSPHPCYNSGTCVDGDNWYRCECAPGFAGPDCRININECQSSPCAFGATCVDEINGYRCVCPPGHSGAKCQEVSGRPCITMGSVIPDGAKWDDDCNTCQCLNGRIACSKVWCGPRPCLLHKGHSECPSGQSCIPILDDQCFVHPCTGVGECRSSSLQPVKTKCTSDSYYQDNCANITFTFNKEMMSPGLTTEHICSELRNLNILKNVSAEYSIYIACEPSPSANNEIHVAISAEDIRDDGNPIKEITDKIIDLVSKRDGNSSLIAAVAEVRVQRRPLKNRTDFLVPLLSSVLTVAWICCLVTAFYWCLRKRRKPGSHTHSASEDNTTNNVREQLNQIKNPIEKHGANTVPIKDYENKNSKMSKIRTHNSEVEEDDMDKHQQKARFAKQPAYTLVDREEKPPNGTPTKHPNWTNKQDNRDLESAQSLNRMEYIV
T4 sequence (Q9JI71 27-686): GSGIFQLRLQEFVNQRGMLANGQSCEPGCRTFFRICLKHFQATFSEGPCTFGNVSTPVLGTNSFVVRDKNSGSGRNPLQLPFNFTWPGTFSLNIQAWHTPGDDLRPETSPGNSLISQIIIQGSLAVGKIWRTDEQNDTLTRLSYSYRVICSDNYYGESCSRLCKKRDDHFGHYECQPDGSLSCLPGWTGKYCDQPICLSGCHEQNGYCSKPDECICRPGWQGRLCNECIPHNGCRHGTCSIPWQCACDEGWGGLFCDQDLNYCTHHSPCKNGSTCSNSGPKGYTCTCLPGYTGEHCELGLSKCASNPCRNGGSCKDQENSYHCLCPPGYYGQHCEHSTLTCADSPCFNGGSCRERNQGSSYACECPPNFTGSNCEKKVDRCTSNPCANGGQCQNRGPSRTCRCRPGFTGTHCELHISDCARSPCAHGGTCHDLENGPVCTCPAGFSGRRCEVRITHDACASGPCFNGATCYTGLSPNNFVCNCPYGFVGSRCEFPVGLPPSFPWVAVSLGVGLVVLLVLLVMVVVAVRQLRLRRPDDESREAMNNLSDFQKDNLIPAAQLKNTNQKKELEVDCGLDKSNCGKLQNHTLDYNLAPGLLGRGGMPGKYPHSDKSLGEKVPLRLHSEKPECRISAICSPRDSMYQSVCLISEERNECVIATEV

- Dll1/293T X Geo mean [1]: 40
- Jagged1/293T X Geo mean [2]: 16
- Dll1/mock ratio [3]: 1.34
- Jagged1/mock ratio [4]: 1.12
- Count [5]: 3
- FL1 [5]: 1500
- FL1 x count [5]: 4490
- % inhibition at 0.020 nM [6]: -5%
- % inhibition at 0.070 nM [6]: 3%
- % inhibition at 0.21 nM [6]: -4%
- % inhibition at 0.62 nM [6]: -14%
- % inhibition at 1.9 nM [6]: 29%
- % inhibition at 5.6 nM [6]: 114%
- % inhibition at 16.7 nM [6]: 115%
- IC50 [6]: 2.02 nM
- Count [7]: 182
- FL1 [7]: 10500
- FL1 x count [7]: 1.9e+06
- % inhibition n = 2 [8]: 88%
- % inhibition n = 3 [9]: 143%
B1: 20G8 (antibody, IgG4, V domains shown)
VH: QVQLVQSGAEVKKPGASVKVSCKASGYTFTSYGISWVRQAPGQGLEWMGWISVYNGNTNYAQKLQGRVTMTTDTSTSTAYMEVRSLRSDDTAVYYCARDRVPRIPRTTEAFDIWGRGTMVTVCS
VL: QSVLTQPPSASGTPGQRVTISCSGSSSNIGSYYVYWYQQLPGTAPKLLIYRDNQRPSGVPDRFSGSKSGTSASLAIRGLRSDDEADYYCAAWDDSLSGHWVFGGGTKLTVL
notes: Fully human; also used where no isotype is printed

- Kd [10]: 0.225 nM
- IC50 [11]: 15.6 nM
- IC50 [12]: 0.75 nM
- Kd [13]: 0.721 nM
- koff [13]: 0.00016 s⁻¹
- kon [13]: 222000 M⁻¹ s⁻¹
B2: 21H3RK IgG2 (antibody, V domains shown)
VH: B1 VH with S31N, S35T, L45P, V53A, G66D, M70V, V83L, R106V, R116Q, C123S
VL: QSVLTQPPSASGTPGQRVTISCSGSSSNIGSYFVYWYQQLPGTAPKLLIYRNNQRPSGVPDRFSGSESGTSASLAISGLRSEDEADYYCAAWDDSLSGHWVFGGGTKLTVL
notes: IgG2

- Kd [10]: 0.32 nM
- IC50 [11]: 13.5 nM
- IC50 [12]: 0.73 nM
- Kd [13]: 0.598 nM
- koff [13]: 0.000155 s⁻¹
- kon [13]: 259000 M⁻¹ s⁻¹
B3: 21H3 IgG2 (antibody, V domains shown)
VH: B1 VH with S31N, S35T, L45P, V53A, G66D, M70V, V83L, R106V, R116Q, C123S
VL: B1 VL with Y33F, D52N, K67E, R77S, D82E, K107R
notes: Formatted as IgG2

Reference: patent US20100196385A1 (AstraZeneca / MedImmune, published 2010)
